The text below walks through data of paper PMC6615864, “Genetic interactions of G-quadruplexes in humans”.

For data set [1], the target named is T1, DDX42 (Homo sapiens, UniProt Q86XP3 1-938).
T1 sequence: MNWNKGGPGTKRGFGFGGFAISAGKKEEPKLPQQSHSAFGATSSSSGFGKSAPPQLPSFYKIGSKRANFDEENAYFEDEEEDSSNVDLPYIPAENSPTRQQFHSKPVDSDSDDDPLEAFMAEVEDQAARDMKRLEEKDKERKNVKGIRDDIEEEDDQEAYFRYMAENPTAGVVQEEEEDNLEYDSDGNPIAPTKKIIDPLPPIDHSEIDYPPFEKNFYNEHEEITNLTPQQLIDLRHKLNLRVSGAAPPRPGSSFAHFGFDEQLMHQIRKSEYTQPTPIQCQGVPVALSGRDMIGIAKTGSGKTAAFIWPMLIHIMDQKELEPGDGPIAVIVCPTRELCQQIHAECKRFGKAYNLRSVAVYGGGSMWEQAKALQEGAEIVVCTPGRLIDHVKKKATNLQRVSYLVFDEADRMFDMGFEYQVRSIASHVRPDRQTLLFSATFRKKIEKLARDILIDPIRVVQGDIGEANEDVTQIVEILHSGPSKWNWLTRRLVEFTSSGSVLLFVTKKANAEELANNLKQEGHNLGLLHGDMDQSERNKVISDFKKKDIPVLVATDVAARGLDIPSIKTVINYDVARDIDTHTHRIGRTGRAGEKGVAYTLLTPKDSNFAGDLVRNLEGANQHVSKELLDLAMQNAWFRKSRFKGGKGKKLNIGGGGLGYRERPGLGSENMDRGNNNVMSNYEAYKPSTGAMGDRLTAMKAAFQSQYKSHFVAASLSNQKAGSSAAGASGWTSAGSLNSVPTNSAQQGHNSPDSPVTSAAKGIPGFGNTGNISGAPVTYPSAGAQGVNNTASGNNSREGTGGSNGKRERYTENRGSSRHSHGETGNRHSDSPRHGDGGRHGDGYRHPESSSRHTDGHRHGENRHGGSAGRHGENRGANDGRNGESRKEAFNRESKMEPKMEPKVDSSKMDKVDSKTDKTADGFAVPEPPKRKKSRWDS
As to the kind of experiment: ELISA; not detectable up to 200 nM DDX42; ELISA: 50 mM K2HPO4 pH 7.4, 100 mM KCl (or 100 mM LiCl), 3% BSA block, 0.1% Tween-20 washes; blocking at room temperature, DDX42 1 h; 50 nM biotin-oligo coating; oligos annealed in 10 mM Tris-HCl pH 7.4, 100 mM KCl. The following applies: protein: commercial, tags: N-terminal GST, label: 5' biotin.

The target of data set [2] is T1, DDX42. The experiment in a line: ELISA; 100 mM KCl; apparent Kd; ELISA: 50 mM K2HPO4 pH 7.4, 100 mM KCl (or 100 mM LiCl), 3% BSA block, 0.1% Tween-20 washes; blocking at room temperature, DDX42 1 h; 50 nM biotin-oligo coating; oligos annealed in 10 mM Tris-HCl pH 7.4, 100 mM KCl. The following applies: protein: commercial; tags: N-terminal GST; label: 5' biotin; parallel G4 (CD verified). A general note: An ELISA detects its analyte on a solid surface through an enzyme-linked reagent.

In data set [3] the target is T1, DDX42. As to the kind of experiment: ELISA; 100 mM KCl; apparent Kd, above the 200 nM top concentration; ELISA: 50 mM K2HPO4 pH 7.4, 100 mM KCl (or 100 mM LiCl), 3% BSA block, 0.1% Tween-20 washes; blocking at room temperature, DDX42 1 h; 50 nM biotin-oligo coating; oligos annealed in 10 mM Tris-HCl pH 7.4, 100 mM KCl. The following applies: protein: commercial; tags: N-terminal GST; label: 5' biotin; parallel G4 (CD verified).

B1: NRAS mut (rG4 mut) (ssRNA)
RNA: UGUAGAAAGAGCAGAUCUAGAUG
Regarding B1, the binding result in the data set with DDX42 [1] (no G4) was “no binding”.

B2: NRAS G4 (rG4) (structured_RNA)
RNA: UGUGGGAGGGGCGGGUCUGGGUGC
For the molecule B2, the Kd with DDX42 [2] is 71.1 ± 3.5 nM.

B3: Stem loop (RNA hairpin) (structured_RNA)
RNA: ACAGGGCUCCGCGAUGGCGGAGCCCAA
Turning to B3, the binding result with DDX42 [1] (hairpin) is “no binding”.

B4: Myc G4 (dG4) (structured_DNA)
DNA: TGAGGGTGGGTAGGGTGGGTAA
For the molecule B4, the Kd with DDX42 [3] came out at 233 ± 23.5 nM.
